This is an account of results in PMC5683418 (Molecular cell, 2017).

The target of this experiment is T1, highly purified Flag-HA-tagged NRF2 (human, UniProt Q16236 1-605).
T1 sequence (looked up): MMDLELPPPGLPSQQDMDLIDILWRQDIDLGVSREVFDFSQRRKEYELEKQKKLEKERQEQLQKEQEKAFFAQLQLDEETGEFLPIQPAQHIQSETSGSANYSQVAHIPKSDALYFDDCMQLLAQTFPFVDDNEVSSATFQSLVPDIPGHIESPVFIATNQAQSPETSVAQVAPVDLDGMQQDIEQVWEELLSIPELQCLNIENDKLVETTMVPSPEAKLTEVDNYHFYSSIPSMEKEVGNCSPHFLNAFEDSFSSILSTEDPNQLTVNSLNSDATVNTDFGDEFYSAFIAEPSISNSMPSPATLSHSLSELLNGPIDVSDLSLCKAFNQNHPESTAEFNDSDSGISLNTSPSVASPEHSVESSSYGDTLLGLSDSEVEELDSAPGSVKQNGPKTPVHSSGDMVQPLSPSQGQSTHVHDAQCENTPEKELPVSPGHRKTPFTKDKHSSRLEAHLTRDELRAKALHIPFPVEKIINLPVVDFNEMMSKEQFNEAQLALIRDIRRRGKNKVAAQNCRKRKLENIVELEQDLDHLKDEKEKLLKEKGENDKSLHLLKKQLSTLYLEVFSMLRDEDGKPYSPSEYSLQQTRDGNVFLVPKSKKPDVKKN
The experiment can be described thus: pull-down.

B1: GST-ARF (1–64) (domain or fragment, UniProt Q8N726 1-64, looked up)
chain: MVRRFLVTLRIRRACGPPRVRVFVVHIPRLTGEWAAPGAPAAVALVLMLLRSQRLGQQPLPRRP
Regarding B1, the binding result was “binds”.
